Bridges are numbered along the chain shown (N, C = ends). Where no end group is shown, it is not given here. [ ]: non-standard residue; d: D form. Glc = glycosylated with D-glucose; Lact = not defined here
Assays:
[1] = biological target: kappa opioid receptor, P41145; assay: PDSP receptor binding; log of Ki in M
[2] = biological target: delta opioid receptor (UniProt P41143); assay: PDSP receptor binding; binding eliminated by the text
[3] = biological target: kappa opioid receptor (UniProt P41145); assay: as above
[4] = biological target: mu opioid receptor (UniProt P35372); assay: PDSP receptor binding; against the glycosylated Trp analogs
[5] = biological target: mu opioid receptor (UniProt P35372); assay: PDSP receptor binding
[6] = biological target: delta opioid receptor (UniProt P41143); assay: PDSP receptor binding, selectivity against MOR; from the 10,000 nM ceiling
[7] = biological target: kappa opioid receptor (UniProt P41145); assay: as above
[8] = biological target: mu opioid receptor (UniProt P35372); assay: PDSP receptor binding; log of Ki in M

Binder	Log Ki [1]	Ki [2] [µM]	Ki [3] [µM]	further fold reduction of MOR binding by D-Nal at position 3 [4] [fold]	Ki [5] [nM]	del/mu (ratio of Ki at DOR to Ki at MOR) [6]	kap/mu (ratio of Ki at KOR to Ki at MOR) [7]	Log Ki [8]
Y[dK]WFES-NH2 (lactam 2-5) [Analog A8: Tyr-c[D-Lys-Trp-Phe-Glu]-Ser-NH2]	-5.98							
YK[dNal]FES(Lact)-NH2 (not fully specified; reading uncertain) [Analog A5 (D-Nal at position 3, C-terminus Ser(Lact)CONH2)]		> 10	> 10	11	55.2	> 181	> 181	-7.26
YK[dNal]FES(Glc)-NH2 (not fully specified) [Analog A4 (D-Nal at position 3, C-terminus Ser(Glc)CONH2)]		> 10	> 10	11	63.5	> 157	> 157	-7.2
